Marks after values point to notes of the source that are not given here.
Tested on: acute myocardial injury caused by viral (Coxsackie B3) infection in mice
Assay: Survival of mice infected with Coxsackie B3 virus
Type: in vivo, BALB/C mice
Conditions: mice n = 20
Protocol: 0.2 ml of 100×TCID50 CVB3 provided by Zhong Shan Hospital affiliated to Fudan University was injected intra-abdominally and established myocarditis model. Within the following week, the mouse manifested pilo-erection, depilation, emaciation, dullness and death, about half of the tested animals died at the 8th day.
Intravenous injection of the testing drug into the tail vein was carried out the same day of intra-abdominal viral infection in mice, the injection was performed for consecutive 5 days, animal survival rate was monitored, after completion of the experiment, echocardiograph, myocardial pathologic examination, serum troponin determination were carried out.
The death status of model animals in various testing drug group was monitored.
• Normal mice control group, model group and testing drug group were set up; • Normal mice control group (n=10); • Model group (n=20): Prepared buffer solution was injected; • Testing drug group (n=20): […] courses with 20 animals assigned for each group; • Placebo control group (n=20): Intra-abdominal injection of non-CVB3 freeze-thaw cellular supernatant, 0.2 ml/animal. 10.2 Dosage Set Up, Preparation of Testing Drug, Route of Drug Administration, Times of Drug Administration, Concentration and Volume of the Testing Drug • rhNRG-1β was diluted with preparation buffer solution (10 mM PB, 0.2% human serum albumin, 5% mannitol to needed concentration; • Three drug administration groups were set up, intravenous injection for consecutive 3-day, 5-day and 7-day, drug volume for each dose was 0.2 ml/animal; • Drug administration of the model group was intravenous injection into the tail vein of mice, once every day (qd), for consecutive 7 days, drug volume for each dose was 0.2 ml/animal. 7.3 Method of the Experiment 7.3.1 Set Up of Acute Viral Myocariditis Animal Model in Mice

B1: rhNRG-1 β: Recombinant human neuregulin fragment of 61 amino acid (SEQ ID NO:4), 3 disulfide bonds, expressed in E. coli (protein, listed as Homo sapiens)
chain: SHLVKCAEKEKTFCVNGGECFMVKDLSNPSRYLCKCPNEFTGDRCQNYVMASFYKAEELYQ
modifications: disulfide (positions not given here)
- Numbers of survival animals (5 μg/kg (so in the source) iv qd × 5, 1st day, (I)): 20
- Numbers of survival animals (5 μg/kg (so in the source) iv qd × 5, 2nd day, (I)): 20
- Numbers of survival animals (5 μg/kg (so in the source) iv qd × 5, 3rd day, (I)): 20
- Numbers of survival animals (5 μg/kg (so in the source) iv qd × 5, 4th day, (I)): 19
- Numbers of survival animals (5 μg/kg (so in the source) iv qd × 5, 5th day, (I)): 18
- Numbers of survival animals (5 μg/kg (so in the source) iv qd × 5, 6th day, (I)): 15
- Numbers of survival animals (5 μg/kg (so in the source) iv qd × 5, 7th day, (I)): 13
- Numbers of survival animals (5 μg/kg (so in the source) iv qd × 5, killed, (I)): 10
- Numbers of survival animals (7.5 μg/kg iv qd × 5, 1st day, (II)): 20
- Numbers of survival animals (7.5 μg/kg iv qd × 5, 2nd day, (II)): 20
- Numbers of survival animals (7.5 μg/kg iv qd × 5, 3rd day, (II)): 20
- Numbers of survival animals (7.5 μg/kg iv qd × 5, 4th day, (II)): 18
- Numbers of survival animals (7.5 μg/kg iv qd × 5, 5th day, (II)): 17
- Numbers of survival animals (7.5 μg/kg iv qd × 5, 6th day, (II)): 14
- Numbers of survival animals (7.5 μg/kg iv qd × 5, 7th day, (II)): 11
- Numbers of survival animals (7.5 μg/kg iv qd × 5, killed, (II)): 10
- Numbers of survival animals (15 μg/kg iv qd × 5, 1st day, (I)): 20
- Numbers of survival animals (15 μg/kg iv qd × 5, 1st day, (II)): 20
- Numbers of survival animals (15 μg/kg iv qd × 5, 2nd day, (I)): 20
- Numbers of survival animals (15 μg/kg iv qd × 5, 2nd day, (II)): 20
- Numbers of survival animals (15 μg/kg iv qd × 5, 3rd day, (I)): 20
- Numbers of survival animals (15 μg/kg iv qd × 5, 3rd day, (II)): 20
- Numbers of survival animals (15 μg/kg iv qd × 5, 4th day, (I)): 20
- Numbers of survival animals (15 μg/kg iv qd × 5, 4th day, (II)): 19
- Numbers of survival animals (15 μg/kg iv qd × 5, 5th day, (I)): 19
- Numbers of survival animals (15 μg/kg iv qd × 5, 5th day, (II)): 18
- Numbers of survival animals (15 μg/kg iv qd × 5, 6th day, (I)): 17
- Numbers of survival animals (15 μg/kg iv qd × 5, 6th day, (II)): 16
- Numbers of survival animals (15 μg/kg iv qd × 5, 7th day, (I)): 14
- Numbers of survival animals (15 μg/kg iv qd × 5, 7th day, (II)): 13
- Numbers of survival animals (15 μg/kg iv qd × 5, killed, (I)): 13
- Numbers of survival animals (15 μg/kg iv qd × 5, killed, (II)): 13
- Number of survival animal (30 μg/kg iv qd × 3, 1st day, (I)): 20
- Number of survival animals (30 μg/kg iv qd × 3, 1st day, (II)): 20
- Number of survival animal (30 μg/kg iv qd × 3, 2nd day, (I)): 20
- Number of survival animals (30 μg/kg iv qd × 3, 2nd day, (II)): 20
- Number of survival animal (30 μg/kg iv qd × 3, 3rd day, (I)): 20
- Number of survival animals (30 μg/kg iv qd × 3, 3rd day, (II)): 20
- Number of survival animal (30 μg/kg iv qd × 3, 4th day, (I)): 19
- Number of survival animals (30 μg/kg iv qd × 3, 4th day, (II)): 20
- Number of survival animal (30 μg/kg iv qd × 3, 5th day, (I)): 18
- Number of survival animals (30 μg/kg iv qd × 3, 5th day, (II)): 19
- Number of survival animal (30 μg/kg iv qd × 3, 6th day, (I)): 16
- Number of survival animals (30 μg/kg iv qd × 3, 6th day, (II)): 16
- Number of survival animal (30 μg/kg iv qd × 3, 7th day, (I)): 14
- Number of survival animals (30 μg/kg iv qd × 3, 7th day, (II)): 15
- Number of survival animal (30 μg/kg iv qd × 3, killed, (I)): 13
- Number of survival animals (30 μg/kg iv qd × 3, killed, (II)): 15
- Numbers of survival animals (30 μg/kg iv qd × 5, 1st day, (I)): 20
- Numbers of survival animals (30 μg/kg iv qd × 5, 1st day, (II)): 20
- Number of survival animal (30 μg/kg iv qd × 5, 1st day, Example 5 (I)): 20
- Number of survival animals (30 μg/kg iv qd × 5, 1st day, Example 5 (II)): 20
- Numbers of survival animals (30 μg/kg iv qd × 5, 2nd day, (I)): 20
- Numbers of survival animals (30 μg/kg iv qd × 5, 2nd day, (II)): 20
- Number of survival animal (30 μg/kg iv qd × 5, 2nd day, Example 5 (I)): 20
- Number of survival animals (30 μg/kg iv qd × 5, 2nd day, Example 5 (II)): 20
- Numbers of survival animals (30 μg/kg iv qd × 5, 3rd day, (I)): 20
- Numbers of survival animals (30 μg/kg iv qd × 5, 3rd day, (II)): 20
- Number of survival animal (30 μg/kg iv qd × 5, 3rd day, Example 5 (I)): 20
- Number of survival animals (30 μg/kg iv qd × 5, 3rd day, Example 5 (II)): 20
- Numbers of survival animals (30 μg/kg iv qd × 5, 4th day, (I)): 20
- Numbers of survival animals (30 μg/kg iv qd × 5, 4th day, (II)): 20
- Number of survival animal (30 μg/kg iv qd × 5, 4th day, Example 5 (I)): 20
- Number of survival animals (30 μg/kg iv qd × 5, 4th day, Example 5 (II)): 20
- Numbers of survival animals (30 μg/kg iv qd × 5, 5th day, (I)): 20
- Numbers of survival animals (30 μg/kg iv qd × 5, 5th day, (II)): 19
- Number of survival animal (30 μg/kg iv qd × 5, 5th day, Example 5 (I)): 19
- Number of survival animals (30 μg/kg iv qd × 5, 5th day, Example 5 (II)): 19
- Numbers of survival animals (30 μg/kg iv qd × 5, 6th day, (I)): 18
- Numbers of survival animals (30 μg/kg iv qd × 5, 6th day, (II)): 18
- Number of survival animal (30 μg/kg iv qd × 5, 6th day, Example 5 (I)): 19
- Number of survival animals (30 μg/kg iv qd × 5, 6th day, Example 5 (II)): 19
- Numbers of survival animals (30 μg/kg iv qd × 5, 7th day, (I)): 17
- Numbers of survival animals (30 μg/kg iv qd × 5, 7th day, (II)): 17
- Number of survival animal (30 μg/kg iv qd × 5, 7th day, Example 5 (I)): 18
- Number of survival animals (30 μg/kg iv qd × 5, 7th day, Example 5 (II)): 18
- Numbers of survival animals (30 μg/kg iv qd × 5, killed, (I)): 16*
- Numbers of survival animals (30 μg/kg iv qd × 5, killed, (II)): 17*
- Number of survival animal (30 μg/kg iv qd × 5, killed, Example 5 (I)): 17*
- Number of survival animals (30 μg/kg iv qd × 5, killed, Example 5 (II)): 18*
- Number of survival animal (30 μg/kg iv qd × 7, 1st day, (I)): 20
- Number of survival animals (30 μg/kg iv qd × 7, 1st day, (II)): 20
- Number of survival animal (30 μg/kg iv qd × 7, 2nd day, (I)): 20
- Number of survival animals (30 μg/kg iv qd × 7, 2nd day, (II)): 20
- Number of survival animal (30 μg/kg iv qd × 7, 3rd day, (I)): 20
- Number of survival animals (30 μg/kg iv qd × 7, 3rd day, (II)): 20
- Number of survival animal (30 μg/kg iv qd × 7, 4th day, (I)): 20
- Number of survival animals (30 μg/kg iv qd × 7, 4th day, (II)): 20
- Number of survival animal (30 μg/kg iv qd × 7, 5th day, (I)): 20
- Number of survival animals (30 μg/kg iv qd × 7, 5th day, (II)): 20
- Number of survival animal (30 μg/kg iv qd × 7, 6th day, (I)): 19
- Number of survival animals (30 μg/kg iv qd × 7, 6th day, (II)): 19
- Number of survival animal (30 μg/kg iv qd × 7, 7th day, (I)): 19
